Source: doi:10.1101/2024.04.08.588565v2

Substrate: O=C1CCCCC1
Assay: purified protein
Format: biochemical, Streptosporangium roseum
Details: 30 mM cyclopropylamine, 0.5 mM NADPH

Protein | Km (Tris pH 8, 25 °C) | kcat (Tris pH 8, 25 °C) | Km (100 mM Tris pH 8.0, 25 °C) | kcat (100 mM Tris pH 8.0, 25 °C)
SrIRED (Streptosporangium roseum DSM 43021; P203A/T241G) (protein) MRDTDVTVLGLGLMGQALAGAFLKDGHATTVWNRSEGKAGQLAEQGAVLASSARDAAEASPLVVVCVSDHAAVRAVLDPLGDVLAGRVLVNLTSGTSEQARATAEWAAERGITYLDGAIMAIPQVVGTADAFLLYSGPEAAYEAHEPTLRSLGAGTTYLGADHGLSSLYDVALLGIMWGTLNSFLHGAALLGTAKVEATTFAAFANRWIEAVTGFVSAYAGQVDQGAYPALDATIDTHVAGVDHLIHESEAAGVNTELPRLVRTLADRALAGGQGGLGYAAMIEQFRSPSA | 5.1 ± 0.4 mM | 49.3 ± 1.5 s⁻¹ | – | –
SrIRED (Streptosporangium roseum DSM 43021) (protein) MRDTDVTVLGLGLMGQALAGAFLKDGHATTVWNRSEGKAGQLAEQGAVLASSARDAAEASPLVVVCVSDHAAVRAVLDPLGDVLAGRVLVNLTSGTSEQARATAEWAAERGITYLDGAIMAIPQVVGTADAFLLYSGPEAAYEAHEPTLRSLGAGTTYLGADHGLSSLYDVALLGIMWGTLNSFLHGAALLGTAKVEATTFAPFANRWIEAVTGFVSAYAGQVDQGAYPALDATIDTHVATVDHLIHESEAAGVNTELPRLVRTLADRALAGGQGGLGYAAMIEQFRSPSA | – | – | 3.52 ± 0.44 mM | 2.11 ± 0.08 s⁻¹
SrIRED (Streptosporangium roseum DSM 43021; T241A) (protein) MRDTDVTVLGLGLMGQALAGAFLKDGHATTVWNRSEGKAGQLAEQGAVLASSARDAAEASPLVVVCVSDHAAVRAVLDPLGDVLAGRVLVNLTSGTSEQARATAEWAAERGITYLDGAIMAIPQVVGTADAFLLYSGPEAAYEAHEPTLRSLGAGTTYLGADHGLSSLYDVALLGIMWGTLNSFLHGAALLGTAKVEATTFAPFANRWIEAVTGFVSAYAGQVDQGAYPALDATIDTHVAAVDHLIHESEAAGVNTELPRLVRTLADRALAGGQGGLGYAAMIEQFRSPSA | 2.31 ± 0.33 mM | 5.77 ± 0.24 s⁻¹ | – | –
SrIRED (Streptosporangium roseum DSM 43021; E146V) (protein) MRDTDVTVLGLGLMGQALAGAFLKDGHATTVWNRSEGKAGQLAEQGAVLASSARDAAEASPLVVVCVSDHAAVRAVLDPLGDVLAGRVLVNLTSGTSEQARATAEWAAERGITYLDGAIMAIPQVVGTADAFLLYSGPEAAYEAHVPTLRSLGAGTTYLGADHGLSSLYDVALLGIMWGTLNSFLHGAALLGTAKVEATTFAPFANRWIEAVTGFVSAYAGQVDQGAYPALDATIDTHVATVDHLIHESEAAGVNTELPRLVRTLADRALAGGQGGLGYAAMIEQFRSPSA | 2.4 ± 0.3 mM | 1.7 ± 0.1 s⁻¹ | – | –
SrIRED (Streptosporangium roseum DSM 43021; T241S) (protein) MRDTDVTVLGLGLMGQALAGAFLKDGHATTVWNRSEGKAGQLAEQGAVLASSARDAAEASPLVVVCVSDHAAVRAVLDPLGDVLAGRVLVNLTSGTSEQARATAEWAAERGITYLDGAIMAIPQVVGTADAFLLYSGPEAAYEAHEPTLRSLGAGTTYLGADHGLSSLYDVALLGIMWGTLNSFLHGAALLGTAKVEATTFAPFANRWIEAVTGFVSAYAGQVDQGAYPALDATIDTHVASVDHLIHESEAAGVNTELPRLVRTLADRALAGGQGGLGYAAMIEQFRSPSA | 2.31 ± 0.51 mM | 6.02 ± 0.39 s⁻¹ | – | –
